The values that follow come from article PMC5605622, “Agdc1p – a Gallic Acid Decarboxylase Involved in the Degradation of Tannic Acid in the Yeast Blastobotrys (Arxula) adeninivorans” (Frontiers in Microbiology, 2017).

Substrate in series [1]: O=C(O)c1cc(O)c(O)c(O)c1
Kind of series: purified protein. The class given is biochemical, Blastobotrys adeninivorans. The settings on record: 50 mM potassium phosphate pH 6.2, 40 °C.

Substrate in series [2]: O=C(O)c1ccc(O)c(O)c1
Kind of series: purified protein. The class given is biochemical, Blastobotrys adeninivorans. The note with it: 50 mM potassium phosphate pH 6.2, 40 °C.

B1: Agdc1-6hp (Agdc1p, gallic acid decarboxylase) (Blastobotrys adeninivorans) (protein)
chain: MTTSYEPWPQLYSHLNGTNEEVLDRMKVAELCKGWSVYRDASEWANFKEMFTPDANIWTTWSGAQTIDSFIQISKDGKDKGAFIMHRECGTLVDLNPKTQRAIGKMKTTITQRFEYEGVPFDIDCDNYFIFFCLKDSNGDWKARWYKVFYVKDKFVPVGVPTAENMEKLAKLFSKENLEQYPWGYQYLAVAQANLGYPIDKKLPTWKNELYHTMYDAMKEWMEGKEIDLHW
notes: full-length ORF (696 bp, 232 residues as printed), C-terminal 6xHis tag kept, expressed in A. adeninivorans G1212, IMAC purified
What is called Km is the substrate concentration at which the rate is half of its maximum. By kcat is commonly meant the number of substrate molecules converted per active site and unit of time at saturation. Regarding B1, in the series “purified protein [1]”, the Km was determined as 0.7 ± 0.2 mM and the kcat was 42.0 ± 8.2 s⁻¹. Further, in the series “purified protein [2]”, the Km amounted to 3.2 ± 0.2 mM and the kcat stood at 44.0 ± 3.4 s⁻¹.
